Reference: article doi:10.1101/744821 (bioRxiv, 2019)

T1: biotinylated HEG1 cytoplasmic tail (a.a. 1274-1381) (UniProt Q9ULI3 1274-1381, biotin on the in vivo biotinylation peptide tag)
T1 sequence (looked up): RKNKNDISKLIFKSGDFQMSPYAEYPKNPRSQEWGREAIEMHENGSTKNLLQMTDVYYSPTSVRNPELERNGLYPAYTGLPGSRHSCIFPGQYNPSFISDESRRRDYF

B1: His6-EGFP-KRIT1(WT) FERM domain (417-736) (domain or fragment, human, UniProt O00522 417-736, looked up)
chain: KPYEKVRIYRMDGSYRSVELKHGNNTTVQQIMEGMRLSQETQQYFTIWICSENLSLQLKPYHKPLQHVRDWPEILAELTNLDPQRETPQLFLRRDVRLPLEVEKQIEDPLAILILFDEARYNLLKGFYTAPDAKLITLASLLLQIVYGNYESKKHKQGFLNEENLKSIVPVTKLKSKAPHWTNRILHEYKNLSTSEGVSKEMHHLQRMFLQNCWEIPTYGAAFFTGQIFTKASPSNHKVIPVYVGVNIKGLHLLNMETKALLISLKYGCFMWQLGDTDTCFQIHSMENKMSFIVHTKQAGLVVKLLMKLNGQLMPTERNS

Columns and labels:
[1] = biological target: T1, biotinylated HEG1 cytoplasmic tail …; test: flow cytometry on beads
[2] = biological target: B1; test: flow cytometry on beads

EC50 [1] [nM] | IC50 [2] [nM] | Binder
32.4 | – | B1
– | 410 | SRRRDYF (peptide, UniProt Q9ULI3 1375-1381, looked up) [non-biotinylated HEG1 7-mer peptide (residues 1375-1381)]
